Measurements taken from US12491259B2, “Anti-variable MUC1* antibodies and uses thereof” (Minerva Biotechnologies Corporation, priority 2022, dated 2025).

Test system: T47D-MUC1* breast cancer cells
Assay: ADC cell killing, photographs and PrestoBlue live/dead cell assay
Type: cell-based, human
Settings: 500 nM and 6.2 nM, 120 hours
Protocol: T47D-MUC1* is a cell line in which T47D cells have been transduced to express even more MUC1*. MNC2-ADC was incubated with T47D-WT cells (FIG. 10A-10G) or T47D-MUC1* cells (FIG. 11A-11G). […] These experiments are shown as just one example. […] The toxin that is attached to the anti-MUC1* antibody may be one of several known to those skilled in the art. Similarly, MNC2 may be human or humanized.
In this next experiment, a valine-citrulline p-aminobenzylcarbamate (VC-PAB) linker was used to connect the deglycosylated antibody and the toxin. The linker is separately coupled to the MMAE at one end, then the other end is reacted with maleimide, then coupled to the antibody after reduction through alkylation. MMAE inhibits cell division by blocking the polymerization of tubulin. […] The viability of the 72 hour co-cultures was measured using a cell death indicator called PrestoBlue™ (Thermo Fisher Scientific, Waltham, MA) (FIG. 17). […]
As another example of how antibodies of the invention can be incorporated into ADCs, antibody drug conjugates, for the treatment of MUC1* positive cancers, a toxin was attached to another anti-MUC1* antibody, 20A10. […] The viability of the 72 hour co-cultures was measured using a cell death indicator called PrestoBlue™ (Thermo Fisher Scientific, Waltham, MA) (FIG. 19). […]

B1: MNC2-Deruxtecan (conjugate)
VH: EVQLVESGGGLVKPGGSLRLSCAASGFTFSGYAMSWVRQAPGKGLEWVSTISSGGTYIYYPDSVKGRFTISRDNAKNSLYLQMNSLRAEDTAVYYCARLGGDNYYEYFDVWGKGTTVTVSS
VL: DIVLTQSPASLAVSPGQRATITCRASKSVSTSGYSYMHWYQQKPGQPPKLLIYLASNLESGVPARFSGSGSGTDFTLTINPVEANDTANYYCQHSRELPFTFGGGTKVEIKRT
killing effect in photographs: significant decrease in cell number
